According to article PMC5974087, “The RPAP3-Cterminal domain identifies R2TP-like quaternary chaperones” (Nature Communications, 2018):

B1: GFP-RPAP3-Cter [human] / SHQ1 [human (endogenous in HeLa)] (parent)
chain 1: AQFATTVLPPIPANSFQLESDFRQLKSSPDMLYQYLKQIEPSLYPKLFQKNLDPDVFNQIVKILHDFYIEKEKPLLIFEILQRLSELKRFDMAVMFMSETEKKIARALFNHIDKSGLKDSSVEELKKRYGG
chain 2: MLTPAFDLSQDPDFLTIAIRVPYARVSEFDVYFEGSDFKFYAKPYFLRLTLPGRIVENGSEQGSYDADKGIFTIRLPKETPGQHFEGLNMLTALLAPRKSRTAKPLVEEIGASEIPEEVVDDEEFDWEIEQTPCEEVSESALNPQCHYGFGNLRSGVLQRLQDELSDVIDIKDPDFTPAAERRQKRLAAELAKFDPDHYLADFFEDEAIEQILKYNPWWTDKYSKMMAFLEKSQEQENHATLVSFSEEEKYQLRKFVNKSYLLDKRACRQVCYSLIDILLAYCYETRVTEGEKNVESAWNIRKLSPTLCWFETWTNVHDIMVSFGRRVLCYPLYRHFKLVMKAYRDTIKILQLGKSAVLKCLLDIHKIFQENDPAYILNDLYISDYCVWIQKVKSKKLAALAEALKEVSLTKAQLGLELEELEAAALLVQEEETALKAAHSVSGQQTLCSSSEASDSEDSDSSVSSGNEDSGSDSEQDELKDSPSETVSSLQGPFLEESSAFLIVDGGVRRNTAIQESDASQGKPLASSWPLGVSGPLIEELGEQLKTTVQVSEPKGTTAVNRSNIQERDGCQTPNN

Variants of: B1
Assay: SILAC quantitative proteomics of GFP IP
Details: with SHQ1 [human (endogenous in HeLa)]; read off a plot

| enrichment (Log2 SILAC ratio) | Variant |
| --- | --- |
| 1.5 | chain 1 R89A M92A |
